Assay [1] deals with recombinant human epiregulin containing the epidermal growth factor (EGF) domain (R&D Biosciences Cat #1195-EP) (human) (UniProt O14944). As to the kind of experiment: cell-based or functional assay.
For assay [2], the target named is recombinant mouse epiregulin (mouse) (UniProt Q61521).
recombinant mouse epiregulin (mouse), sequence (Q61521 56-101 limits assumed): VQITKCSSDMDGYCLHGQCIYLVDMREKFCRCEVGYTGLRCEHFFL

recombinant human epiregulin containing the epidermal growth factor (EGF) domain (R&D Biosciences Cat #1195-EP) (human), sequence (O14944 63-108 limits assumed): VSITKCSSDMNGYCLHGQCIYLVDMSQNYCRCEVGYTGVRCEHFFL

On to “rat anti-human/mouse neutralizing epiregulin antibody (R&D Systems MAB1068, clone 189611)”, for which the IC50 of inhibition of epiregulin-induced HFF proliferation (rhEreg 100 ng/ml) in assay [1] stood at 0.16 µg/mL. Also, in assay [2], the IC50 of inhibition of HFF proliferation induced by 100 ng/ml rmEreg (GFP fluorescence) stood at 0.1 µg/mL.

The values above are taken from patent US20250154238A1, “METHODS AND COMPOSITIONS FOR TREATING AND PREVENTING FIBROSIS” (YALE UNIVERSITY, priority 2022, published 2025).
